How the values were obtained:
Experiment in all cases: pull-down; GFP-CEP55 proteins (355 nM) bound to GFP-Trap Magnetic Agarose beads; taxol-polymerised MTs (545 nM tubulin), pH adapted to 7.5, incubated 1 h at 4 °C; 6 washes; bound MTs detected by Western blot against β tubulin; MTs bound to CEP55^FL set as 100%
[1] = target: His-GFP-CEP55^1–428 (C-terminus, aa 429–464, deleted) (UniProt Q53EZ4)
[2] = target: His-GFP-CEP55^59–428 (N- and C-termini deleted) (UniProt Q53EZ4)
[3] = target: His-GFP-CEP55^59–464 (N-terminus, aa 1–58, deleted) (UniProt Q53EZ4)

- percent reduction of MT binding against CEP55^FL [1]: 20%
- percent reduction of MT binding against CEP55^FL [2]: 60%
- percent reduction of MT binding against CEP55^FL [3]: 20%
Substance: Microtubules polymerised with taxol from tubulin prepared from porcine brain (from UniProt P02550 1-451; Q767L7 1-444) (complex)

Source: article PMC11353242
